Source: PMC6030874

Biological target: EGFP-MeCP2 R306C (mouse)

methylation-dependent transcriptional repression of a luciferase reporter (untagged MeCP2 e1 in Mecp2-/y, Mbd2-/- mouse tail fibroblasts), relative to WT MeCP2: 25 % of WT
Substance: NCoR1 (from UniProt O75376 1-2440) (natural protein)
